# Measured values taken from the RNAGym collection of RNA variant scans (doi:10.1073/pnas.2313332121).
# B1: TPR t1 (parent)
# chain: GACCAAUCUGCCCUCAGAGCUCGAGAACAUCUUCGGAUGCAGAGGAGGCAGGCUUCGGUGGCGCGAUAGCGCCAACGUCCUCAACCUCCAAUGCAUCCCACCACAUGAUGAUGCCUGAAGAGCCUUGGUUUUUUG
# Variants of: B1
# Experiment: polymerase ribozyme fitness, log enrichment relative to wild type (log ratio); higher = more active; in vitro selection for triplet polymerase activity
# Method in brief: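 Genotype fitness is the logarithm of its enrichment divided by wild-type enrichment, using inverse-variance-weighted averages of replicates. That logarithm is base 2. Enrichment was measured by Illumina sequencing of input and output libraries from one triplicate in vitro selection round, with frozen incubation at −7 °C, on PCR-built, transcribed mutant libraries of each subunit of a heterodimeric triplet polymerase ribozyme, retaining genotypes with ≥10 input reads and ≥1 read per output.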
row,Variant,polymerase ribozyme fitness (log ratio)
1,G10U C40A C76G A83U C101A,-3.85
2,G10U G39U,-0.472
3,G10U C20A A50C C72U C114U,-4.68
4,C11A A37U G51U C56U A68U C98A U109A,-8.64
5,C11A C98U U125A,-2.97
6,G10U G42A G45A G77C U78G U96C G128A U131G,-3.17
7,G10U A75U,-0.536
8,C11A C85A C114A C123U,-2.71
9,C11A C49G,-1.67
10,C11A G60U C97A C123U,-2.32
11,C11A C13U A50U C62U,-2.9
12,G10U C12G C89G U96A G110U U112A G117C,-5.26
13,G10U G48U G93A,-1.17
14,G10U C11G G52U U109C C114U,-5.43
15,G10U U92A A111G,-4.02
16,C11A C88G,-2.99
17,G10U C11A G36U U78G C115G,-5.09
18,G10U G48C G60A,-0.865
19,C11A A95U U96A C101G U106C C124A,-3.67
20,G10U G19C A37U C72A,-1.54
21,G10U C15G G61A,-1.63
22,G10U C22G U106A G120C,-2.7
23,C11A G44C G48U,-4.1
24,G10U C15G G120A,-1.69

row,Variant,polymerase ribozyme fitness (log ratio)
1,C11A C20U C40A A43U A119U,-5.02
2,G10U U54A,-1.28
3,G10U C13G G120C,1.66
4,G10U G47C C104U,-1.69
5,C11A C31G G47A U92C G120A U131A,-5.58
6,C11A C28U G36A U81A C85U G120A,-4.25
7,G10U C40G G44C A111C,-4.09
8,G10U G120U,1.99
9,C11A C56A C64U U126G,-4.75
10,G10U G63U C79U U132A,-0.795
11,G10U U14A U132A,-1.64
12,C11A G52A,-1.58
13,C11A G52U,-2.14
14,C11A C13G C72U C88G G113A,-5.81
15,G10U A121U,1.92
16,G10U G58U U78C G122A C124U,0.946
17,C11A G36A C79U U87A,-4.09
18,C11A A74U,-2.52
19,C11A U33G C56G A103G G122A,-6.79
20,C11A C49U C94G,-2.46
21,G10U C13A G48U C94U U132A,-0.329
22,G10U U32C C56A C72A,-1.43
23,C11A C56G,-1.77
24,G10U C20A A66G,-4.29

row,Variant,polymerase ribozyme fitness (log ratio)
1,C11A C49A U59A A68G A91G,-6.83
2,C11A G42C G51C G57U C62U U78C C89U G113A G122C,-6.22
3,C11A C70G C80U C97G C124A,-5.66
4,G10U G71U C94A,-1.09
5,G10U C34A G69U G122A,0.552
6,C11A C62U G117A G122A,-0.74
7,G10U C11G C62G,-1.22
8,C11A C22G G48A C72G A119G,-4.64
9,G10U C22G G60C C88A,-4.88
10,C11A C53G,-1.8
11,C11A C53U,-1.77
12,G10U G19A G36C C79U,-3.73
13,G10U C34U G44C U112C,-5
14,C11A C13A C40U,-3.65
15,G10U G77A C79U C94U,-0.432
16,G10U C62A G71U G127C,-0.898
17,C11A G58C,-2.25
18,C11A C80G C88U,-6.42
19,C11A C123G,1.15
20,C11A U30G A37C U112C,-5.59
21,C11A A50G U81A,-2.23
22,G10U G69A A91C,-7.2
23,G10U U32C C56A C64A,-6.8
24,G10U C56G A111C,-0.962

row,Variant,polymerase ribozyme fitness (log ratio)
1,C11A C79U G120A,1.38
2,G10U C62U A111C G117C,-5.6
3,C11A C15U C28G C123G G128U,-5.63
4,C11A A37U C62A C102A,-5.51
5,C11A C89U,-2.53
6,C11A C82G C101A A121C,-0.28
7,C11A G63C U81G,-5.33
8,C11A C12U G57U U87G G93A C102A,-4.56
9,G10U G71A G120U,1.24
10,G10U C22U G47A U96A C123A,-5.89
11,C11A G45U G71C A121C U132A,-0.245
12,G10U C97U,-0.693
13,G10U U32G C102U C124U U126G,-7.39
14,G10U A50U C89G,-2.96
15,G10U C13U U38G C123A,1.31
16,C11A G63C,-1.78
17,C11A G17C G19A G39A G69U C123G,-5.74
18,C11A U30C U81A C104G A111U A119G U132C,-6.53
19,C11A C49U G93A U129A,-3.29
20,C11A C13G C20U C53U U78G,-2.65
21,C11A C89A G93A A118G,-3.96
22,C11A C22U A91U C102U C115U G135U,-6.8
23,G10U C73U,-0.579
24,G10U A50U G63A,-3.1

row,Variant,polymerase ribozyme fitness (log ratio)
1,G10U C56A C73G,-2.43
2,G10U U87G C88G C98U G113A,-1.98
3,C11A G77A A84U G122A,-1.06
4,G10U C124U,1.37
5,C11A C72G C79A C85A A121U,-1.86
6,C11A G61A C80U C98U A100U,-4.96
7,G10U G122A,0.462
8,C11A C56A A66G C85A U112A,-4.09
9,C11A A37G U59A U131C,-1.86
10,G10U G45A U78A A100U,-1.09
11,C11A G60U U87C U112C G117A U130C,-5.25
12,C11A G128C,-3.97
13,C11A G45U C49U C70U U87A,-3.95
14,G10U G42A G45U,-3.02
15,C11A G45C C62U,-2.56
16,C11A U21C U112G,-0.593
17,G10U C20U U32A U125G,-4.96
18,G10U G113C U125A,-3.42
19,C11A C89A A111U G122A,-5.04
20,C11A G122U,0.0729
21,C11A G71C,-2.37
22,G10U G42U A91C U106A U112A,-0.271
23,C11A G42U,-2.71
24,C11A C72A A91G U126G,-5.33

row,Variant,polymerase ribozyme fitness (log ratio)
1,G10U A46U C82G G127U,-3.03
2,C11A G36A A50G G113C,-4.17
3,C11A G17C,-4.25
4,C11A G17A,-6.16
5,G10U C40G G52C C98U C123U,-2.05
6,G10U C20A,-3.25
7,G10U C13G C72U,-0.677
8,G10U U78C C86U G110A,-1.98
9,C11A C22A C56G U78A U112A U131A,-2.4
10,G10U C15U A18U C49A C70U C80A G93U G117U,-7.04
11,C11A A50U,-2.48
12,C11A A119U,-1.67
13,G10U C82A U92G U116C A119U,-5.07
14,C11A C49U C85A U106A,-3.44
15,G10U G42A G61C,-5.15
16,C11A G47A C102A,-4.79
17,G10U C22A C72U U92G A105U A118G,-7.38
18,C11A C40A G52A U92A,-3.14
19,G10U G110U C114U,-3.42
20,G10U U112G C123G,0.673
21,C11A C28U C53U C89A,-5.79
22,G10U C12U C82A A84G,-0.497
23,C11A C22G G48A A119G,-3.23
24,G10U C13U C73U C102G A119U C124A,-5.74

row,Variant,polymerase ribozyme fitness (log ratio)
1,G10U C11A C13G G19A G57U A90G A91U,-2.55
2,C11A C40U G45A C70A G120C,-1.21
3,G10U G51C,-3.01
4,G10U G51A,-2.56
5,G10U C76A G127C,-2.18
6,C11A C12U A37G U78A U131A,-1.88
7,C11A U54A C123A,0.93
8,C11A A16G G23U G39C C76U A95C G113U C114G,-7.17
9,C11A C49U C102A,-3.16
10,C11A G47A G69U G77U,-1.86
11,C11A C12U A37G C73U U78A U131A,-0.943
12,C11A U33G,-6.86
13,C11A G17U C115G C123G U126C,-3.25
14,C11A U38G C56U A90U,-3.35
15,C11A G39A A105C,-3.91
16,C11A C12U G61U A100U,-1.23
17,G10U G45U,-0.583
18,C11A G58C U59G U81A,-2.19
19,G10U C40G C124U U129A,-1.91
20,C11A G45U G63U,-3.75
21,G10U G17U G45U C104U C124A,-1.08
22,C11A G60U G71C U87C U112C G117A U130C,-7.15
23,C11A G39U,-1.81
